The numbers were not newly measured in publication PMC4212800, which cites them from elsewhere.

In general, Kd refers to a measure of binding affinity in units of concentration.

The data set deals with CD4 D1-D2 (Homo sapiens) (UniProt P01730).

In the case of Ibalizumab, the Kd is 0.0825 nM.
